Test results from the supplement of paper PMC10126150.
± gives the standard deviation of the averaged measurements.

Test system: ATP
Assay: switch fluorescence ratio, 500 uM ATP over buffer (Cy3 cluster intensity, sum of 5 cycles each) (fold (ratio)); higher = stronger signal-on switching upon ATP binding; sequences stand for … in TCGTCGGCAGCGTCAGATGTGTATAAGAGACAGTTTTTTTTTTTTTTTTTTTTTTTTT…TC
Conditions: aptamer strand: ATP DNA aptamer (quencher-CACCTGGGGGAGTATTGCGGAGGAAGG + anchor), 100 nM annealed; ATP concentration: 500 uM
Summary of the method: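 Five buffer/ATP imaging cycles were run on Cy3-labelled switching-strand clusters on a modified Illumina MiSeq flow-cell, with NaOH stripping and re-annealing between cycles. In each cycle, clusters annealed to 100 nM quencher-labelled ATP aptamer were imaged in selection buffer, then after 15 min with 500 uM ATP at 22 °C. Per cluster, the fluorescence ratio is summed target-cycle over summed buffer-cycle Cy3 intensity, averaged per switch-domain sequence. Only clusters within 100-1000 RFU were kept.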
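Also: ATP exposure 15 min at 22 °C before imaging.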

| Sequence | switch fluorescence ratio |
| --- | --- |
| AGGTAGTGGG | 0.974 ± 0.029 |
| AGGTAGTGTC | 1.03 ± 0.023 |
| AGGTAGTGTG | 0.989 ± 0.014 |
| AGGTATAAGC | 0.994 ± 0.043 |
| AGGTATCAAT | 1 ± 0.053 |
| AGGTATGGCC | 1.04 ± 0.091 |
| AGGTATGGTT | 0.984 ± 0.024 |
| AGGTCAACCG | 1.02 ± 0.02 |
| AGGTCACAG | 1 ± 0.03 |
| AGGTCCGGTA | 1.01 ± 0.011 |
| AGGTCGCCTG | 1.031 ± 0.0069 |
| AGGTCGCGGT | 0.994 ± 0.025 |
| AGGTCGGACA | 1.006 ± 0.0094 |
| AGGTCGGGGA | 1.05 ± 0.056 |
| AGGTCGGTCT | 0.995 ± 0.058 |
| AGGTCGTTTT | 0.991 ± 0.027 |
| AGGTCTACTA | 1.05 ± 0.059 |
| AGGTGAAGGG | 1.02 ± 0.018 |
| AGGTGAGGGT | 1.022 ± 0.0047 |
| AGGTGAGGTA | 1 ± 0.019 |
| AGGTGATAGG | 0.9825 ± 0.0059 |
| AGGTGCATAC | 1.45 ± 0.32 |
| AGGTGCCAGG | 1.07 ± 0.036 |
| AGGTGGAAAC | 1.01 ± 0.048 |
| AGGTGGGCAG | 0.984 ± 0.018 |

| Sequence | switch fluorescence ratio |
| --- | --- |
| AGGTGGGGAG | 0.998 ± 0.041 |
| AGGTGGGTG | 1.04 ± 0.1 |
| AGGTGGTCTG | 0.9885 ± 0.0047 |
| AGGTGTAGCA | 1.02 ± 0.051 |
| AGGTGTGAGA | 1.06 ± 0.044 |
| AGGTGTGTTG | 0.984 ± 0.034 |
| AGGTTAAGTT | 0.989 ± 0.021 |
| AGGTTAGAAG | 1.006 ± 0.0014 |
| AGGTTAGCGT | 0.9946 ± 0.0013 |
| AGGTTAGGG | 1 ± 0.064 |
| AGGTTAGGTG | 1.42 ± 0.34 |
| AGGTTAGTAG | 0.973 ± 0.0052 |
| AGGTTAGTCG | 1.01 ± 0.032 |
| AGGTTATTTT | 0.992 ± 0.04 |
| AGGTTCACTT | 0.998 ± 0.025 |
| AGGTTCATTG | 0.975 ± 0.021 |
| AGGTTCCTAG | 0.9775 ± 0.0049 |
| AGGTTCGG | 0.9937 ± 0.0069 |
| AGGTTCTCGG | 0.967 ± 0.026 |
| AGGTTGAAGT | 0.988 ± 0.011 |
| AGGTTGCGAG | 0.989 ± 0.019 |
| AGGTTGGATC | 0.995 ± 0.088 |
| AGGTTGGCAA | 1.07 ± 0.14 |
| AGGTTGGTAA | 0.969 ± 0.01 |
| AGGTTTAATT | 1.01 ± 0.015 |

| Sequence | switch fluorescence ratio |
| --- | --- |
| AGGTTTGATC | 1.006 ± 0.0096 |
| AGGTTTTTAT | 1.06 ± 0.16 |
| AGGTTTTTGG | 0.963 ± 0.012 |
| AGGTTTTTTG | 0.995 ± 0.016 |
| AGTAAAAATG | 0.982 ± 0.027 |
| AGTAAAAGTT | 0.989 ± 0.052 |
| AGTAAAGATT | 0.9995 ± 0.0041 |
| AGTAAAGGCC | 1.02 ± 0.08 |
| AGTAAAGTCT | 1.04 ± 0.035 |
| AGTAAATTTA | 1.001 ± 0.0046 |
| AGTAAGAGGG | 1.01 ± 0.012 |
| AGTAAGGGGC | 0.98 ± 0.019 |
| AGTAAGGTTG | 0.961 ± 0.054 |
| AGTAAGTTGG | 0.967 ± 0.022 |
| AGTAATATAT | 0.976 ± 0.028 |
| AGTAATGTGC | 0.996 ± 0.022 |
| AGTACCATTG | 0.997 ± 0.015 |
| AGTACGCAAG | 1.12 ± 0.039 |
| AGTACGTGCG | 0.9781 ± 0.0081 |
| AGTACTAAAG | 1.01 ± 0.033 |
| AGTAGAAGAT | 0.9552 ± 0.0071 |
| AGTAGCGTCG | 0.985 ± 0.048 |
| AGTAGGAGCT | 0.962 ± 0.026 |
| AGTAGGCCTA | 1.04 ± 0.025 |
| AGTAGGCGGT | 0.993 ± 0.023 |

| Sequence | switch fluorescence ratio |
| --- | --- |
| AGTAGGGGCG | 1.03 ± 0.033 |
| AGTAGGGGGC | 1 ± 0.035 |
| AGTAGGGGGG | 0.988 ± 0.033 |
| AGTAGTCGTC | 0.99 ± 0.058 |
| AGTAGTGAGG | 0.979 ± 0.017 |
| AGTAGTTCGG | 1.019 ± 0.0075 |
| AGTAGTTGAA | 0.988 ± 0.044 |
| AGTAGTTTCG | 0.983 ± 0.037 |
| AGTATAGGGC | 0.989 ± 0.049 |
| AGTATAGTGG | 1.03 ± 0.022 |
| AGTATATGCC | 1 ± 0.034 |
| AGTATATTGG | 0.99 ± 0.044 |
| AGTATGGCGG | 0.975 ± 0.068 |
| AGTATTGGTG | 0.956 ± 0.026 |
| AGTCAAAAAG | 0.985 ± 0.051 |
| AGTCACAGCT | 0.982 ± 0.032 |
| AGTCACGGGT | 1.03 ± 0.016 |
| AGTCACGTAG | 1.03 ± 0.019 |
| AGTCATCGGC | 1.01 ± 0.056 |
| AGTCATTATG | 1 ± 0.036 |
| AGTCCGATGC | 1.51 ± 0.17 |
| AGTCCGGGTT | 0.991 ± 0.036 |
| AGTCCTCGGA | 0.96685 ± 0.00022 |
| AGTCCTTTT | 0.9882 ± 0.0095 |
| AGTCGACTGT | 0.956 ± 0.02 |
